Measured values published in patent US20190177416A1 (NANOMAB TECHNOLOGY, published 2019).
Values belong to the binder of their own block, whether it stands above or below them.

Biological target: T1, human PD-L1 protein (coated antigen) (human, UniProt Q9NZQ7 19-238, limits assumed)
T1 construct: Construct not described; also called PD-L1 antigen; antigenic protein PD-L1
Assay: PE-ELISA, crude extract on coated PD-L1
Method: (1) From the cell culture dishes containing phage after 3-4 rounds of screening in Example 2, 1000 individual colonies were selected and inoculated into TB medium containing 100 μg/ml of ampicillin (1 liter of TB medium contains 2.3 g of potassium dihydrogen phosphate, 12.52 g of dipotassium hydrogen phosphate, 12 g of peptone, 24 g of yeast extract, 4 ml of glycerol), after growth to log phase, add a final concentration of […] of IPTG, culture at 28° C. overnight. (2) The crude antibody was obtained by the infiltration method, and the antibody was transferred to an antigen-coated ELISA plate and placed at room temperature for 1 hour. (3) Unbound antibody was washed away with PBST, and a mouse anti-HA tag antibody (anti-mouse anti-HA antibody, purchased from Beijing Kangwei Century Biotechnology Co., Ltd.) was added and placed at room temperature for 1 hour. (4) Unbound antibody was washed away with PBST, and anti-mouse alkaline phosphatase conjugate (goat anti-mouse alkaline phosphatase-labeled antibody, purchased from Amytech Co., Ltd.) was added and placed at room temperature for 1 hour. (5) Wash the unbound antibody with PBST, add alkaline phosphatase coloring solution, and read the absorbance at 405 nm on an ELISA apparatus. (6) When the OD value of the sample well is more than 3 times the OD value of the control well (Ratio+/−>3), it is judged as a positive clone hole. (7) The bacteria of the positive clone well were shaken in a LB liquid containing 100 μg per ml to extract a plasmid and perform sequencing.

T1 sequence (Q9NZQ7 19-238 limits assumed): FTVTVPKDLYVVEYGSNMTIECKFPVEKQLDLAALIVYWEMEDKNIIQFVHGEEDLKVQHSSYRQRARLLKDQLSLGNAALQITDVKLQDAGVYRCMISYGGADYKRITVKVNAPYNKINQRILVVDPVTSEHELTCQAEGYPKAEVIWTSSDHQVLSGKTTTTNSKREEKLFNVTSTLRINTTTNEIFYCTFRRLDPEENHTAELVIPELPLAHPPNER

B1: SEQ ID NO 19 (VHH)
VHH: QVQLQESGGGSVQTGGSLRLSCAASTSIYSNNYMAWFSQAPGKGREGVAAVYIGDGRPYYADSVKGRFTISLDSAKNTVYLQMNSLKPEDTAMYYCAAAPGPLSRNYWYTSANYDYWGQGTQVTVSS
notes: pMECS-expressed; also called VHH numbered 19
OD ratio (experimental group (A405 nm)/control group (A405 nm)): > 20

B2: SEQ ID NO 26 (VHH)
VHH: QVQLQESGGGSVQTGGSLRLSCAASTSIYNNNYMAWFSQAPGKEREGVAAVYIGDGRPYYADSVKGRFTISLDSAKNTVYLQMNSLKPEDTAMYYCAAAPGPLSRNYWYTSANYDYWGQGTQVTVSS
notes: pMECS-expressed; also called VHH numbered 26
OD ratio (experimental group (A405 nm)/control group (A405 nm)): > 20

B3: SEQ ID NO 16 (VHH)
VHH: QVQLQESGGGSVQTGGSLRLSCAASPSIYSNNYMAWFSQAPGKGREGVAAVYIGDGRPYYADSVKGRFTISLDSAKNTVYLQMNSLKPEDTAMYYCAAAPGPLSRNYWYTSANYDYWGQGTQVTVSS
notes: pMECS-expressed; also called VHH numbered 16
OD ratio (experimental group (A405 nm)/control group (A405 nm)): > 20

B7: SEQ ID NO 32 (VHH)
VHH: QVQLQESGGGSVQTGGSLRLSCAASTSIYSINYMAWFSQAPGKGREGVAAVYIGDGRPYYADSVKGRFTISLDSAKNTVYLQMNSLKPEDTAMYYCAAAPGPLSQHYWYTSANYDYWGQGTQVTVSS
notes: pMECS-expressed; also called VHH numbered 32
OD ratio (experimental group (A405 nm)/control group (A405 nm)): > 20

B8: SEQ ID NO 28 (VHH)
VHH: QVQLQESGGGSVQTGGSLRLSCAASTSIYSNNYMAWFRQAPGKGREGVAAVYIDDGRPYYADSVKGRFTISLDSAKNTVYLQMNSLKPEDTAMYYCAAAPGPLSRHYWYTSANYDYWGPGTQVTVSS
notes: pMECS-expressed; also called VHH numbered 28
OD ratio (experimental group (A405 nm)/control group (A405 nm)): > 20

B9: SEQ ID NO 17 (VHH)
VHH: QVQLQESGGGSVQTGGSLRLSCAASTSIYSLNYMAWFSQAPGKGREGVAAVYIDDGRPYYADHVKGRFTISLDTAKNTVYLQMNSLKPEDTAMYYCAAAPGPLSRNYWYTSANYDYWGQGTQVTVSS
notes: pMECS-expressed; also called VHH numbered 17
OD ratio (experimental group (A405 nm)/control group (A405 nm)): > 20

B11: SEQ ID NO 22 (VHH)
VHH: QVQLQESGGGSVQTGGSLRLSCAASTSIYSNNYMAWFSQAPRKGREGVAAVYIGDGRPYYADSVKGRFTISLDSAKNTVYLQMNSLKPEDTAMYYCAAAPGPLSHNYWYTSANYDYWGQGTQVTVSS
notes: pMECS-expressed; also called VHH numbered 22
OD ratio (experimental group (A405 nm)/control group (A405 nm)): > 20

B12: SEQ ID NO 13 (VHH)
VHH: QVQLQESGGGSVQTGGSLRLSCAASTSIYSNNYMAWFSQNPGKGREGVAAVYIGDGRPYYADSVKGRFTISLDSAKNTVYLQMNSLKPEDTAMYYCAAAPGPLSRNYWYTSANYDYWGQGTQVTVSS
notes: pMECS-expressed; also called VHH numbered 13
OD ratio (experimental group (A405 nm)/control group (A405 nm)): > 20

B13: SEQ ID NO 30 (VHH)
VHH: QVQLQESGGGSVQTGGSLRLSCTASTSIYSNNYMAWFSQAPGKGREGVAAVYIDDGRPYYADSVKGRFTISLDSAKNTVYLQMNSLKPEDTAMYYCAAAPGPLSRNYWYTSANYDYWGQGTQVTVSS
notes: pMECS-expressed; also called VHH numbered 30
OD ratio (experimental group (A405 nm)/control group (A405 nm)): > 20

B15: SEQ ID NO 29 (VHH)
VHH: QVQLQESGGGSVRTGGSLRLSCAASPSIYSNNYMAWFSQAPGKGREGVAAVYIDDGRPYYADSVKGRFTISLDSAKNTVYLQMNSLKPEDTAMYYCAAAPGPLSRNYWYTSANYDYWGQGTQVTVSS
notes: pMECS-expressed; also called VHH numbered 29
OD ratio (experimental group (A405 nm)/control group (A405 nm)): > 20

B16: SEQ ID NO 31 (VHH)
VHH: QVQLQESGGGSVQTGGSLRLSCAASTSIYSNNYMAWFRQAPGKGREGVAGVYIGDGRPYYADSVKGRFTISLDSAKNTVYLQMNSLKPEDTAMYYCAAAPGPLSHHYWYTSANYDYWGPGTQVTVSS
notes: pMECS-expressed; also called VHH numbered 31
OD ratio (experimental group (A405 nm)/control group (A405 nm)): > 20

B19: SEQ ID NO 15 (VHH)
VHH: QVQLQESGGGSVQTGGSLRLSCAASTSIYSNNYMAWFSQAPGKGREGVAAVYIDDGRTYYADSVKGRFTISLDSAKNTVYLQMNSLKPEDTAMYYCAAAPGPLSYNYWYTSANYDYWGQGTQVTVSS
notes: pMECS-expressed; also called VHH numbered 15
OD ratio (experimental group (A405 nm)/control group (A405 nm)): > 20

B21: SEQ ID NO 33 (VHH)
VHH: QVQLQESGGGSVQTGGSLRLSCACSTSIYSNNYMAWFSQAPGKGREGVAAVYIGDGRPYYADSVKGRFTISLDSAKNTMYLQMNSLKPEDTAMYYCAAAPGPLSQHYWYTSANYDYWGQGTQVTVSS
notes: pMECS-expressed; also called VHH numbered 33
OD ratio (experimental group (A405 nm)/control group (A405 nm)): > 20

B22: SEQ ID NO 25 (VHH)
VHH: QVQLQESGGGSVQTGGSLRLSCTASTSIYSNNYMAWFSQAPGKGREGVAAVYIGDGRPYYADSVKGRFTISLDSAKNTVYLQMNSLKPEDTAMYYCAAAPGPLSHNYWYTSANYDYWGQGTQVTVSS
notes: pMECS-expressed; also called VHH numbered 25
OD ratio (experimental group (A405 nm)/control group (A405 nm)): > 20

B23: SEQ ID NO 21 (VHH)
VHH: QVQLQESGGGSVQTGGSLRLSCAASTSIYSLNYMAWFSQAPGKGREGVAAVYIGDGRPYYADSVKGRFTISLDSAKNTVYLQMNSLKSEDTAMYYCAAAPGPLSRHYWYTSANYDYWGQGTQVTVSS
notes: pMECS-expressed; also called VHH numbered 21
OD ratio (experimental group (A405 nm)/control group (A405 nm)): > 20

B24: SEQ ID NO 24 (VHH)
VHH: QVQLQESGGGSVQTGGSLRLSCTASTSIYSNNYMAWFSQSPGKGREGVAAVYMDDGRPYYADSVKGRFTISLDSAKNTMYLQMNSLKPEDTAMYYCAAAPGPLSRNYWYTSANYDYWGQGTQVTVSS
notes: pMECS-expressed; also called VHH numbered 24
OD ratio (experimental group (A405 nm)/control group (A405 nm)): > 20

B26: SEQ ID NO 23 (VHH)
VHH: QVQLQESGGGSVQTGGSLRLSCAASTSLYSYNYMAWFSQAPGKGREGVAAVYVGDGRPYYADSVKGRFTISLDSAKNTVYLQMNSLKPEDTAMYYCAAAPGPLSHNYWYTSANYDYWGQGTQVTVSS
notes: pMECS-expressed; also called VHH numbered 23
OD ratio (experimental group (A405 nm)/control group (A405 nm)): > 20

B27: SEQ ID NO 27 (VHH)
VHH: QVQLQESGGGSVQTGGSLRLSCTASTSIYSNNYMAWFSQSPGKGREGVAAVYMDDGRPYYADSVKGRFTISLDSAKNTMYLQMNSLKPEDTAMYYCAAAPGPLSRNYWYTSANYDYWGQGTQVTVSS
notes: pMECS-expressed; also called VHH numbered 27
OD ratio (experimental group (A405 nm)/control group (A405 nm)): > 20

B28: SEQ ID NO 14 (VHH)
VHH: QVQLQESGGGSVQTGGSLRLSCAASTSIYSNNYMAWFSQAPGKGREGVAAVYIDDGRPYYADSVKGRFTISLDSAKNTVYLQVNSLKPEDTAMYYCAAAPGPLSRNYWYTSANYDYWGQGTQVTVSS
notes: pMECS-expressed; also called VHH numbered 14
OD ratio (experimental group (A405 nm)/control group (A405 nm)): > 20

Continued, values first:

OD ratio (experimental group (A405 nm)/control group (A405 nm)): > 20
B4: SEQ ID NO 43 (VHH)
VHH: QVQLQESGGGSVQTGGSLRLSCAASSSIASNNYMAWFSQAPGKGREGVAAVYIGDGRPYYADSVKGRFTISLDSAKNTVYLQMNSLKPEDTAMYYCAAAPGPLSRNYWYTSANYDYWGQGTQVTVSS
notes: pMECS-expressed; also called VHH numbered 43

OD ratio (experimental group (A405 nm)/control group (A405 nm)): > 20
B5: SEQ ID NO 36 (VHH)
VHH: QVQLQESGGGSVQTGGSLRLSCAASTSLYSYNYMAWFSQAPGKGREGVAAVYVGDGRPYYAASVKGRFTISLDSAKNTVYLQMNSLKPEDTAMYYCAAAPGPLSHNYWYTSANYDYWGQGTQVTVSS
notes: pMECS-expressed; also called VHH numbered 36

OD ratio (experimental group (A405 nm)/control group (A405 nm)): > 20
B6: SEQ ID NO 42 (VHH)
VHH: QVQLQESGGGSVQTGGSLTLSCAASTSIYSYNYMAWFRQAPGKGREGVAAVYIGDGRPYYADSVKGRFTISPDSAKNTVYLQMNSLKPEDTAMYYCAAAPGPLSRHYWYTSANYDYWGPGTQVTVSS
notes: pMECS-expressed; also called VHH numbered 42

OD ratio (experimental group (A405 nm)/control group (A405 nm)): > 20
B10: SEQ ID NO 35 (VHH)
VHH: QVQLQESGGGSVQTGGSLRLSCTASTSIYSNNYMAWFSQAPGKGREGVAAVYIDDGRPYYADSVKGRFTISLDSAKNTVYLQMNSLKPEDTAMYYCAAAPGPLSRNYWYTSANYDYWGQGTQVTVSS
notes: pMECS-expressed; also called VHH numbered 35

OD ratio (experimental group (A405 nm)/control group (A405 nm)): > 20
B14: SEQ ID NO 41 (VHH)
VHH: QVQLQESGGGSVQTGGSLRLSCAASTSIYSNNYMAWFRQAPGKGREGVAAVYIGDGRPYYADSAKGRFTISLDSAKNTVYLQMNSLKPEDTAMYYCAAAPGPLSRHYWYTSANYDYWGPGTQVTVSS
notes: pMECS-expressed; also called VHH numbered 41

OD ratio (experimental group (A405 nm)/control group (A405 nm)): > 20
B17: SEQ ID NO 38 (VHH)
VHH: QVQLQESGGGSVQTGGSLRLSCAASTSIYSNNYMAWFSQAPGKGREGVAAVYIGDGRPYYADSAKGRFTISLDSAKNTVYLQMNSLKPEDTAMYYCAAAPGPLSRNYWYTSANYDYWGQGTQVTVSS
notes: pMECS-expressed; also called VHH numbered 38

OD ratio (experimental group (A405 nm)/control group (A405 nm)): > 20
B18: SEQ ID NO 37 (VHH)
VHH: QVQLQESGGGSVQTGGSLRLSCAASTSIYSINYMAWFRQAPGKGREGVAAVYIDDGRPYYADSVKGRFTISLDSAKNTVYLQMTSLKSEDTAMYYCAAAPGPLSRSYWYTSANYDYWGQGTQVTVSS
notes: pMECS-expressed; also called VHH numbered 37

OD ratio (experimental group (A405 nm)/control group (A405 nm)): > 20
B20: SEQ ID NO 39 (VHH)
VHH: QVQLQESGGGSVQTGGSLRLSCAASTSIYSNNYMAWFSQAPGKGREGVAALYIGDGRPYYADSVKGRFTIALDSAKNTVYLQMNGLKPEDTAMYYCAAAPGPLKHNYWYTSANYDYWGQGTQVTVSS
notes: pMECS-expressed; also called VHH numbered 39

OD ratio (experimental group (A405 nm)/control group (A405 nm)): > 20
B25: SEQ ID NO 40 (VHH)
VHH: QVQLQESGGGSVQTGGSLRLSCAASTSIYSNNYMAWFSQAPGKGREGVAALYIGDGRPYYADSVKGRFTIALDSAKNTVYLQMNGLKPEDTAMYYCAAAPGPLKHNYWYTSANYDYWGQGTQVTVSS
notes: pMECS-expressed; also called VHH numbered 40
